Series [1] concerns the target T1, ParB (Pseudomonas aeruginosa, UniProt Q9HT12 1-290).
T1 sequence: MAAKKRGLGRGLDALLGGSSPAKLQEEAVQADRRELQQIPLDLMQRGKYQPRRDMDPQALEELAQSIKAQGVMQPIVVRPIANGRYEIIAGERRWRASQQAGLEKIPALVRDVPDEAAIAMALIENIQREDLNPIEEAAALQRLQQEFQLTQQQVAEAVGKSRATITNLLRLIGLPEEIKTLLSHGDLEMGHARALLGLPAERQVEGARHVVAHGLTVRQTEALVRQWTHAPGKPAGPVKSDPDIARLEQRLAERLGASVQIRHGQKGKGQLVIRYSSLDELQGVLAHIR
Nature of the series: EMSA; highest in affinity hierarchy; 10 mM Tris-HCl pH 7.5, 0.5 mM DTT, 50 mM KCl, 1 mM MgCl2, 20 ul, 6 pmol labelled DNA, 18 pmol nonspecific competitor (titrations) or 240 pmol ParB plus 18-180 pmol unlabelled parS2 (dissociation), 15 min 37 C; 5% PAGE in 0.5x TBE. The following applies: protein: recombinant; tags: His6 (pET28-derived pKLB28); chain copies: 2; label: 5'-Cy3 on strand 1; 5' overhang 4 nt at both ends. For orientation: In EMSA bound probe runs differently from free probe, usually more slowly.

For series [2], the target named is T1, ParB. As to the kind of experiment: EMSA; hierarchy: below parS10, above parS5; 10 mM Tris-HCl pH 7.5, 0.5 mM DTT, 50 mM KCl, 1 mM MgCl2, 20 ul, 6 pmol labelled DNA, 18 pmol nonspecific competitor (titrations) or 240 pmol ParB plus 18-180 pmol unlabelled parS2 (dissociation), 15 min 37 C; 5% PAGE in 0.5x TBE. The following applies: protein: recombinant; tags: His6 (pET28-derived pKLB28); chain copies: 2; label: 5'-Cy3 on strand 1; 5' overhang 4 nt at both ends.

Series [3] deals with T1, ParB. As to the kind of experiment: EMSA; no significant difference from wt parS5; unlabelled parS2 competitor; 10 mM Tris-HCl pH 7.5, 0.5 mM DTT, 50 mM KCl, 1 mM MgCl2, 20 ul, 6 pmol labelled DNA, 18 pmol nonspecific competitor (titrations) or 240 pmol ParB plus 18-180 pmol unlabelled parS2 (dissociation), 15 min 37 C; 5% PAGE in 0.5x TBE. The following applies: protein: recombinant; tags: His6 (pET28-derived pKLB28); chain copies: 2; label: 5'-Cy5 on strand 1; 5' overhang 4 nt at both ends.

The target of series [4] is T1, ParB. As to the kind of experiment: EMSA; hierarchy: below parS1/4, equal to parS8, parS9; 10 mM Tris-HCl pH 7.5, 0.5 mM DTT, 50 mM KCl, 1 mM MgCl2, 20 ul, 6 pmol labelled DNA, 18 pmol nonspecific competitor (titrations) or 240 pmol ParB plus 18-180 pmol unlabelled parS2 (dissociation), 15 min 37 C; 5% PAGE in 0.5x TBE. The following applies: protein: recombinant; tags: His6 (pET28-derived pKLB28); chain copies: 2; label: 5'-Cy3 on strand 1; 5' overhang 4 nt at both ends; one mismatch as printed.

Series [5] deals with T1, ParB. As to the kind of experiment: EMSA; hierarchy: below parS7-9, above parS6; 10 mM Tris-HCl pH 7.5, 0.5 mM DTT, 50 mM KCl, 1 mM MgCl2, 20 ul, 6 pmol labelled DNA, 18 pmol nonspecific competitor (titrations) or 240 pmol ParB plus 18-180 pmol unlabelled parS2 (dissociation), 15 min 37 C; 5% PAGE in 0.5x TBE. The note with it: protein: recombinant; tags: His6 (pET28-derived pKLB28); chain copies: 2; label: 5'-Cy3 on strand 1; 5' overhang 4 nt at both ends.

The target of series [6] is T1, ParB. Nature of the series: EMSA; no specific complex; nonspecific smearing at ParB >5 uM; 10 mM Tris-HCl pH 7.5, 0.5 mM DTT, 50 mM KCl, 1 mM MgCl2, 20 ul, 6 pmol labelled DNA, 18 pmol nonspecific competitor (titrations) or 240 pmol ParB plus 18-180 pmol unlabelled parS2 (dissociation), 15 min 37 C; 5% PAGE in 0.5x TBE. The following applies: protein: recombinant; tags: His6 (pET28-derived pKLB28); chain copies: 2; label: 5'-Cy5 on strand 1; blunt.

The target of series [7] is T1, ParB. As to the kind of experiment: EMSA; second in hierarchy; competed by unlabelled parS2; 10 mM Tris-HCl pH 7.5, 0.5 mM DTT, 50 mM KCl, 1 mM MgCl2, 20 ul, 6 pmol labelled DNA, 18 pmol nonspecific competitor (titrations) or 240 pmol ParB plus 18-180 pmol unlabelled parS2 (dissociation), 15 min 37 C; 5% PAGE in 0.5x TBE. The note with it: protein: recombinant; tags: His6 (pET28-derived pKLB28); chain copies: 2; label: 5'-Cy3 on strand 1; 5' overhang 4 nt at both ends.

Series [8] has as its target T1, ParB. As to the kind of experiment: EMSA; hierarchy: below parS1/4, equal to parS7, parS8; 10 mM Tris-HCl pH 7.5, 0.5 mM DTT, 50 mM KCl, 1 mM MgCl2, 20 ul, 6 pmol labelled DNA, 18 pmol nonspecific competitor (titrations) or 240 pmol ParB plus 18-180 pmol unlabelled parS2 (dissociation), 15 min 37 C; 5% PAGE in 0.5x TBE. The following applies: protein: recombinant; tags: His6 (pET28-derived pKLB28); chain copies: 2; label: 5'-Cy3 on strand 1; 5' overhang 4 nt at both ends.

Series [9] concerns the target T1, ParB. As to the kind of experiment: EMSA; lowest of the wt sites in hierarchy; 10 mM Tris-HCl pH 7.5, 0.5 mM DTT, 50 mM KCl, 1 mM MgCl2, 20 ul, 6 pmol labelled DNA, 18 pmol nonspecific competitor (titrations) or 240 pmol ParB plus 18-180 pmol unlabelled parS2 (dissociation), 15 min 37 C; 5% PAGE in 0.5x TBE. The following applies: protein: recombinant; tags: His6 (pET28-derived pKLB28); chain copies: 2; label: 5'-Cy3 on strand 1; 5' overhang 4 nt at both ends.

The target in series [10] is T1, ParB. As to the kind of experiment: EMSA; hierarchy: below parS1/4, equal to parS7, parS9; 10 mM Tris-HCl pH 7.5, 0.5 mM DTT, 50 mM KCl, 1 mM MgCl2, 20 ul, 6 pmol labelled DNA, 18 pmol nonspecific competitor (titrations) or 240 pmol ParB plus 18-180 pmol unlabelled parS2 (dissociation), 15 min 37 C; 5% PAGE in 0.5x TBE. The note with it: protein: recombinant; tags: His6 (pET28-derived pKLB28); chain copies: 2; label: 5'-Cy3 on strand 1; 5' overhang 4 nt at both ends.

B1: parS2/parS3 (dsDNA)
DNA 1: AATTCAAGCTTTGTTCCACGTGGAACAG
DNA 2: TCGACTGTTCCACGTGGAACAAAGCTTG
Regarding B1, the binding result with ParB [1] is listed as “binds”.

B2: parS6 (dsDNA)
DNA 1: AATTCAAGCTTCGTTCCACGTGGAAGAG
DNA 2: TCGACTCTTCCACGTGGAACGAAGCTTG
Take B2: the binding result with ParB [2] is listed as “binds”.

B3: parS5* (dsDNA)
DNA 1: AATTCAAGCTTTATTGTATATGGAGCAG
DNA 2: TCGACTGCTCCATATACAATAAAGCTTG
B3: the binding result in the series with ParB [3] is recorded as “binds”.

B4: parS7 (dsDNA)
DNA 1: AATTCAAGCTTTGTTCCACGAGGAACCG
DNA 2: TCGACCGTTCCTCGTGGAACAAAGCTTG
Turning to B4, the binding result with ParB [4] is listed as “binds”.

B5: parS10 (dsDNA)
DNA 1: AATTCAAGCTTTGTTCCACAGGGAACAG
DNA 2: TCGACTGTTCCCTGTGGAACAAAGCTTG
In the case of B5, the binding result with ParB [5] was “binds”.

B6: nonspecific control (dsDNA)
DNA 1: GATAGCTCTTTGCCATTAAC
DNA 2: GTTAATGGCAAAGAGCTATC
On to B6, for which, in the series with ParB [6], the binding result is reported as “no binding”.

B7: parS1/parS4 (dsDNA)
DNA 1: AATTCAAGCTTTGTTCCACGTGGAACCG
DNA 2: TCGACGGTTCCACGTGGAACAAAGCTTG
For the molecule B7, in the series with ParB [7], the binding result is listed as “binds”.

B8: parS9 (dsDNA)
DNA 1: AATTCAAGCTTTGTTCCACGAGGAAGAG
DNA 2: TCGACTCTTCCTCGTGGAACAAAGCTTG
Regarding B8, in the series with ParB [8], the binding result was “binds”.

B9: parS5 (dsDNA)
DNA 1: AATTCAAGCTTTGTTCTACATGGAACAG
DNA 2: TCGACTGTTCCATGTAGAACAAAGCTTG
B9: the binding result with ParB [9] is on record as “binds”.

B10: parS8 (dsDNA)
DNA 1: AATTCAAGCTTTGTTCCACGAGGCACAG
DNA 2: TCGACTGTGCCTCGTGGAACAAAGCTTG
With B10, the binding result with ParB [10] is “binds”.

Source of the values: article PMC4368675, “A Single parS Sequence from the Cluster of Four Sites Closest to oriC Is Necessary and Sufficient for Proper Chromosome Segregation in Pseudomonas aeruginosa”.
